Consider two molecules from US20070166314A1 (AstraZeneca / MedImmune, published 2007).

In assay [1] the target is T1, EphA2 on cells (MDA-MB-231, MCF-10A, MCF-7 transfected with human EphA2) (human, UniProt P29317 24-976).
T1 construct: whole, on cells; MDA-MB-231 and MCF-10A carry endogenous EphA2 and no species is stated for them
The assay can be described thus: immunofluorescence, 10 µg/ml at 4 C, MDA-MB-231 and MCF-10A cells. On the procedure: The epitopes of EphA2 antibodies were characterized. […] EA2 preferentially binds EphA2 on transformed cells (FIG. 16D). […] Treatment of non-transformed MCF-10A cells with 4 mM EGTA for 20 min. dissociated the cells. EA2 bound EphA2 on the EGTA dissociated cells but not the untreated cells (FIGS. 17A-17B).

Assay [2] has as its target T2, EphA2-Fc (extracellular domain of human EphA2 linked to human IgG1 constant region) (human, UniProt P29317 24-537).
T2 construct: extracellular domain; Used as immunogen, ELISA antigen and BIACORE ligand; not shown: human IgG1 constant region
The assay can be described thus: BIACORE, EphA2-Fc immobilized on a CM5 chip, double-referenced; undiluted hybridoma supernatant. On the procedure: EphA2-Fc was immobilize to a surface on a CM5 sensorchip using a standard amine (70 μl of a 1:1 mix of NHS/EDC) coupling chemistry. Briefly, a 400 nM solution of EphA2-Fc in 10 mM NaOAc, pH4, was then injected over the activated surface to a density of 1000-1100 RU's. Unused reactive esters were subsequently “capped” with a 70 μinjection of 1M Et-NH2. Similarly, an activated and “capped” control surface was prepared on the same sensor chip without protein to serve as a reference surface.
A 250 μl injection of each of the EphA2 hybridoma supernatants was made over both the EphA2-Fc and control surfaces, and the binding responses were recorded. These supernatants were used undiluted. Following each injection, at least 10 min. of dissociation phase data was collected. Purified EphA2 monoclonal antibody EA2 was prepared to serve as a positive control (at 1 μg, 5 μg and 25 μg per 250 μl of growth medium). […] Control injections of growth medium across these surfaces were also made. Following each binding cycle, the EphA2-Fc surface was regenerated with a single 1 min. pulse (injection) of 1M NaCl-50 mM NaOH.
(In general: Surface plasmon resonance follows binding to a sensor surface in real time, without labels.)

The target in assay [3] is T2, EphA2-Fc (extracellular domain of human …). The assay can be described thus: competitive ELISA on EphA2-Fc; competitor: labeled EA2; x axis is the ratio of unlabeled to labeled antibody. From the text:
Supernatants from bulk culture hybridomas were screened for immunoreactivity against EphA2 (Table 6, column 4) using standard molecular biological techniques (e.g., ELISA immunoassay). Supernatants were further screened for the ability to inhibit an EphA2 monoclonal antibody (EA2; ATCC deposit no. PTA-4380; see co-pending U.S. patent application Ser. No. 10/436,783, entitled “EphA2 Agonistic Monoclonal Antibodies and Methods of Use Thereof” filed May 12, 2003) from binding to EphA2. […] Both antibodies could decrease the amount of labeled EA2 binding to EphA2-Fc with increasing concentrations of unlabeled antibody added. Additionally, many of the other antibodies could inhibit EA2 binding to EphA2 as well (Table 6, column 3).
For orientation: In an ELISA, binding on a coated surface is turned into a signal by an enzyme label.

T2 sequence (P29317 24-537): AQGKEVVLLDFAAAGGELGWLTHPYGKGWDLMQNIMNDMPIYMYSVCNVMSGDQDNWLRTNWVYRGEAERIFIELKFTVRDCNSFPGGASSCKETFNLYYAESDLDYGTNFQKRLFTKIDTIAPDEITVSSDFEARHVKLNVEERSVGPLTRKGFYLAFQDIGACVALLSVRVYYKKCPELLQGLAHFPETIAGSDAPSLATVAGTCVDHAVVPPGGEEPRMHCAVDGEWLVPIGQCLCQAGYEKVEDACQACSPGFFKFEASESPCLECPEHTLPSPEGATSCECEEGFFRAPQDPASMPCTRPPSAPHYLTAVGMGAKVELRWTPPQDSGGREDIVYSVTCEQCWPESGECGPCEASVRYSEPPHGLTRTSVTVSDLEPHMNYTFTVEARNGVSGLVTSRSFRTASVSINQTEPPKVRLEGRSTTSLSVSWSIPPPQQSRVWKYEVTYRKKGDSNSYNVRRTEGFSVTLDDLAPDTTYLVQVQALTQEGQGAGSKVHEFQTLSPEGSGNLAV
T1 sequence (P29317 24-976): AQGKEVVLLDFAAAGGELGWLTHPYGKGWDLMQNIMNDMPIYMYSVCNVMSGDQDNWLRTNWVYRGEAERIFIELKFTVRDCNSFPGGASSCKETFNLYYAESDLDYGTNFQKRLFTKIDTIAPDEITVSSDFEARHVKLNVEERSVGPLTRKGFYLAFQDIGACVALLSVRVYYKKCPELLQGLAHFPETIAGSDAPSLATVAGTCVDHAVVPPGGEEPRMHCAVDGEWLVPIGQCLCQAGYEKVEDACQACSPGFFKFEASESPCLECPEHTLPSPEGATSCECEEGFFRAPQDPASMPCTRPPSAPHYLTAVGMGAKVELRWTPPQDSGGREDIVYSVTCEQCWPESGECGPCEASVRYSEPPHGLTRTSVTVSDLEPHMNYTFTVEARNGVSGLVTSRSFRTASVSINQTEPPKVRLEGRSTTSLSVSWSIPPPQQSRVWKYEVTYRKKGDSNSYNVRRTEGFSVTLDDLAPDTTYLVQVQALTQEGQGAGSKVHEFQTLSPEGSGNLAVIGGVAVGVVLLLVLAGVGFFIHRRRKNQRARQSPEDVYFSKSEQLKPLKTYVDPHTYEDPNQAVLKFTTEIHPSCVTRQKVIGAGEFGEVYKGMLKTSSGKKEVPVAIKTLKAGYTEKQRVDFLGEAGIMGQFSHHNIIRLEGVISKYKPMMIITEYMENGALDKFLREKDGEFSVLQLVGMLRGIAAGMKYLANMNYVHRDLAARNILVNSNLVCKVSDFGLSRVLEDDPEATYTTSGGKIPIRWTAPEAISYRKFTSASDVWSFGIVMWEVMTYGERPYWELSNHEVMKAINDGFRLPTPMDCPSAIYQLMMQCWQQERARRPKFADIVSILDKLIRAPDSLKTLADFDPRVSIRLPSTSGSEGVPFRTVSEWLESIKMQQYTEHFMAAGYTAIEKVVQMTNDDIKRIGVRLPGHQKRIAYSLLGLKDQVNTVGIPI

B1: Eph099B-233.152 (ATCC PTA-5194) (antibody, V domains shown)
VH: EVKLVESGGGLVQPGGSLSLSCAASGFTFTDYSMNWVRQPPGKALEWLGFIRNKANDYTTEYSASVKGRFTISRDNSQSILYLQMNALRAEDSATYYCVRYPRYHAMDSWGQGTSVTVSS
VL: DIVLTQSPATLSVTPGDSVNLSCRASQSISNNLHWYQQKSHESPRLLIKYVFQSISGIPSRFSGSGSGTDFTLSINSVETEDFGMYFCQQSNSWPLTFGAGTKLELK
notes: Mouse hybridoma antibody (SJL mice); detected with anti-mouse IgG
With B1, the binding result in assay [1] and in assay [2] was “binds” in each case.

B2: Eph099B-208.261 (ATCC PTA-4573) (antibody, V domains shown)
VH: QVQLQQPGAELVKPGASVKLSCKASGYTFTSYWMHWVKQRPGQGLEWIGMIHPNSGSTNYNEKFKSKATLTVDKSSSTAYMRLSSLTSEDSAVYYCARGGNMVGGGYWGQGTTLTVSS
VL: QIVLTQSPALMSASPGEKVTMTCSASSSVSYMYWYQQKPRSSPKPWIYLTTNLASGVPARFSGSGSGTSYSLTISSMEAEDAATYYCQQWSSNPFTFGSGTKLEIR
notes: Mouse hybridoma antibody (SJL mice)
As to B2, the binding result in assay [3] is on record as “binds”.
